The record followed here is the RNAGym collection of RNA variant scans (doi:10.7554/elife.80360).

B1: HDV Ribozyme (parent)
chain: GGCCGGCAUGGUCCCAGCCUCCUCGCUGGCGCCGGCUGGGCAACAUUCCGAGGGGACCGUCCCCUCGGUAAUGGCGAAUGGGACCCA

In this series the parent is B1. Description: self-cleavage, relative activity (ratio to wild type); higher = more cleavage; co-transcriptional.
Turning to G11C U20A, the self-cleavage was 0.0978.

For the variant G11C U20G, the self-cleavage turned out to be 0.

On to G11U C22G, for which the self-cleavage came out at 0.

G11U C22U: the self-cleavage stood at 0.103.

With G11U C22A, the self-cleavage is 0.0179.

Regarding U12A C61G, the self-cleavage came out at 0.158.

As for U12A C61U, the self-cleavage was 0.469.

With G11U A43G, the self-cleavage amounted to 0.0339.

Consider G11U A43C, for which the self-cleavage is 0.0594.

As to G11C C66U, the self-cleavage was 0.289.

As for U12A G76C, the self-cleavage came to 0.443.

With U12A G76A, the self-cleavage came out at 0.499.

Turning to U12A G76U, the self-cleavage stood at 0.906.

Turning to U12C A70C, the self-cleavage was 0.

In the case of G11U U72A, the self-cleavage was determined as 0.287.

Consider G11U U72G, for which the self-cleavage worked out at 0.145.

As to G11C U69A, the self-cleavage was determined as 0.166.

Consider U12A G17U, for which the self-cleavage amounted to 0.108.

G11U C41G: the self-cleavage was determined as 0.204.

As to G11C C15U, the self-cleavage is 0.0554.

Regarding U12A A56G, the self-cleavage is 0.196.

As for U12A A56U, the self-cleavage was 0.403.

Take U12A A56C: the self-cleavage came out at 0.262.

For the variant U12A C58U, the self-cleavage amounted to 0.302.

With G11C G34U, the self-cleavage was determined as 0.0302.

For the variant G11C U65G, the self-cleavage turned out to be 0.

Consider G11C U65A, for which the self-cleavage was 0.293.

As to G11U C36U, the self-cleavage turned out to be 0.138.

With G11U C36G, the self-cleavage was determined as 0.0615.

Consider U12A G34U, for which the self-cleavage worked out at 0.142.

Take G11C C86G: the self-cleavage stood at 0.312.

With G11U G28C, the self-cleavage was 0.0992.

Consider G11U G59A, for which the self-cleavage amounted to 0.499.

Consider G11U G59U, for which the self-cleavage was found to be 0.41.

As to G11U G59C, the self-cleavage turned out to be 0.297.

Take G11U U47C: the self-cleavage was determined as 0.156.

As to U12A G52C, the self-cleavage amounted to 0.453.

As to G11C U12G, the self-cleavage was 0.123.

Take G11C U12A: the self-cleavage was found to be 0.

Take G11C U12C: the self-cleavage is 0.145.

Consider G11U U46G, for which the self-cleavage turned out to be 0.285.

Consider G11U U46A, for which the self-cleavage is 0.18.

Regarding G11C G39A, the self-cleavage amounted to 0.264.

Consider G11C G39C, for which the self-cleavage is 0.0489.

Regarding G11C C49A, the self-cleavage was 0.388.

In the case of G11U A83C, the self-cleavage is 0.119.

For G11C C36A, the self-cleavage was 0.0536.

Regarding G11U C30A, the self-cleavage is 0.128.

Turning to U12A C64G, the self-cleavage is 0.437.

For the variant G11C U72A, the self-cleavage is 0.0875.

Regarding U12A G67A, the self-cleavage turned out to be 0.383.

Turning to U12A G67U, the self-cleavage was 0.256.

In the case of U12A G74C, the self-cleavage was 0.135.

Turning to U12A G74A, the self-cleavage was determined as 0.128.

Turning to G11U G31C, the self-cleavage worked out at 0.146.

Take G11U G40A: the self-cleavage was 0.387.

Take G11C C44A: the self-cleavage turned out to be 0.0923.

For the variant G11C C44G, the self-cleavage amounted to 0.

Take G11C C44U: the self-cleavage stood at 0.0437.

Take U12A A71U: the self-cleavage worked out at 0.262.

Turning to U12A A71G, the self-cleavage worked out at 0.

For the variant U12A A71C, the self-cleavage was 0.262.

On to U12A A77G, for which the self-cleavage stood at 0.151.

On to U12A A77U, for which the self-cleavage came to 0.

Take U12A A77C: the self-cleavage was 0.0755.

On to G11U C75G, for which the self-cleavage stood at 0.0264.

Consider G11U C75A, for which the self-cleavage stood at 0.0231.

For U12A U46G, the self-cleavage came to 0.104.

On to G11C G59C, for which the self-cleavage worked out at 0.415.

On to G11C G59U, for which the self-cleavage was found to be 0.35.

As to G11U G39A, the self-cleavage came to 0.128.

In the case of G11C U60A, the self-cleavage is 0.0831.

G11C U60C: the self-cleavage turned out to be 0.511.

As for G11C U60G, the self-cleavage worked out at 0.256.

G11C C33A: the self-cleavage amounted to 0.0346.

Turning to G11C C33U, the self-cleavage came out at 0.256.

Regarding G11C C33G, the self-cleavage came to 0.0396.

As to G11U G67C, the self-cleavage amounted to 0.262.

Turning to G11U C66A, the self-cleavage was 0.31.

As for G11C G31U, the self-cleavage came to 0.0482.

Turning to G11C G31C, the self-cleavage stood at 0.0791.

With U12A C21G, the self-cleavage stood at 0.237.

In the case of U12A C21U, the self-cleavage worked out at 0.0831.

Regarding U12A G35C, the self-cleavage is 0.142.

As for U12A G35A, the self-cleavage was 0.0875.

U12A G35U: the self-cleavage came out at 0.0225.

As for U12A C84U, the self-cleavage amounted to 0.519.

Turning to U12A C84G, the self-cleavage is 0.554.

In the case of G11U C64U, the self-cleavage stood at 0.519.

In the case of U12A U69A, the self-cleavage worked out at 0.346.

As to G11U U60G, the self-cleavage is 0.381.

With G11U U69C, the self-cleavage is 0.161.

For the variant G11U U69A, the self-cleavage was determined as 0.317.

For G11U U69G, the self-cleavage came to 0.309.

Consider G11U C57U, for which the self-cleavage is 0.282.

Turning to U12A C30G, the self-cleavage came out at 0.131.

On to U12A C30A, for which the self-cleavage is 0.0652.

In the case of U12A C24G, the self-cleavage was found to be 0.0437.

In the case of U12A C24U, the self-cleavage turned out to be 0.135.

In the case of G11C U46A, the self-cleavage worked out at 0.115.

In the case of G11C U46C, the self-cleavage is 0.123.

With G11U C21G, the self-cleavage worked out at 0.086.

Take U12A G54A: the self-cleavage stood at 0.306.

G11C G73C: the self-cleavage is 0.0346.

Regarding G11C C84A, the self-cleavage amounted to 0.458.

Consider U12A U20C, for which the self-cleavage was determined as 0.

U12A U20G: the self-cleavage was determined as 0.

Regarding U12A U20A, the self-cleavage was determined as 0.101.

With G11C U37G, the self-cleavage was determined as 0.101.

As to G11C G29A, the self-cleavage was determined as 0.

Regarding G11C G25C, the self-cleavage came to 0.0475.

G11C G25U: the self-cleavage was 0.

On to G11C G25A, for which the self-cleavage worked out at 0.0449.

As for U12A C22A, the self-cleavage is 0.

In the case of U12A C22U, the self-cleavage is 0.0426.

Take G11C U27C: the self-cleavage is 0.196.

As for G11C U27A, the self-cleavage came to 0.646.

In the case of G11U G82A, the self-cleavage is 0.0678.

G11U G82C: the self-cleavage turned out to be 0.117.

For G11C C24U, the self-cleavage was found to be 0.219.

With G11C C24G, the self-cleavage is 0.0583.

G11C C24A: the self-cleavage amounted to 0.0898.

With U12A G73A, the self-cleavage came to 0.123.

With U12A G73C, the self-cleavage is 0.314.

Consider U12A G25C, for which the self-cleavage is 0.17.

In the case of U12A G25U, the self-cleavage came to 0.133.

For the variant G11U G76A, the self-cleavage was found to be 0.292.

As for U12A G80C, the self-cleavage came to 0.0852.

In the case of U12C A45G, the self-cleavage was 0.277.

With U12C A45U, the self-cleavage is 0.196.

Consider U12A G40C, for which the self-cleavage worked out at 0.219.

As to U12A G40A, the self-cleavage is 0.374.

Consider U12A G40U, for which the self-cleavage is 0.111.

For the variant G11U G17C, the self-cleavage was determined as 0.203.

As for G11U G17U, the self-cleavage amounted to 0.308.

Take G11U G17A: the self-cleavage is 0.45.

Regarding G11U C63A, the self-cleavage was found to be 0.228.

For G11U C63U, the self-cleavage worked out at 0.364.

Turning to U12C A78C, the self-cleavage is 0.162.

For U12A C44G, the self-cleavage amounted to 0.166.

Regarding G11U C26A, the self-cleavage amounted to 0.689.

With G11C G55U, the self-cleavage was found to be 0.305.

For the variant G11C G55C, the self-cleavage was 0.228.

As to G11U G29U, the self-cleavage was found to be 0.0536.

Regarding G11U G29A, the self-cleavage worked out at 0.158.

On to G11U G29C, for which the self-cleavage stood at 0.0231.

For U12A C48U, the self-cleavage was determined as 0.277.

On to U12A C48A, for which the self-cleavage amounted to 0.244.

With G11C G54A, the self-cleavage amounted to 0.277.

Consider G11C G54C, for which the self-cleavage stood at 0.291.

Take U12A U79G: the self-cleavage came out at 0.302.

On to U12A U79C, for which the self-cleavage was determined as 0.166.

Regarding G11C U47G, the self-cleavage is 0.383.

Take G11C U47C: the self-cleavage came out at 0.453.

G11U A51G: the self-cleavage was 0.415.

Turning to G11U C32A, the self-cleavage was found to be 0.0545.

With U12A C14U, the self-cleavage came out at 0.332.

Regarding G11U U65C, the self-cleavage amounted to 0.19.

In the case of G11U U65G, the self-cleavage was 0.542.

For U12A C36A, the self-cleavage came out at 0.0992.

U12A C36G: the self-cleavage was determined as 0.0707.

Take G11C G35C: the self-cleavage was determined as 0.151.

Regarding U12A C13A, the self-cleavage was found to be 0.0378.

With U12A C13G, the self-cleavage stood at 0.

For G11U G73U, the self-cleavage amounted to 0.111.

Take G11U U23G: the self-cleavage turned out to be 0.134.

Take U12A G55C: the self-cleavage is 0.201.
